Kd data for one molecule are collected here from PMC3906126 (2013).

This assay has as its target T1, ErbB4 PY3 motif (Homo sapiens, UniProt Q15303).
T1 chain: KPGTVLPPPPYRHRNTVV

B1: WWOX WW1 (peptide)
chain: DSEDELPPGWEERTTKDGWVYYANHTEEKTQWEHPKTGKR
The molecule B1 gave a Kd of around 100 µM.
